Target: the molecule itself
Assay: SEC

B1: M tuberculosis MscL ion channel, wild type (natural protein)
chain: MLKGFKEFLARGNIVDLAVAVVIGTAFTALVTKFTDSIITPLINRIGVNAQSDVGILRIGIGGGQTIDLNVLLSAAINFFLIAFAVYFLVVLPYNTLRKKGEVEQPGDTQVVLLTEIRDLLAQTNGDSPGRHGGRGTPSPTDGPRASTESQ
notes: also called TbMscL; WT TbMscL
  stoichiometry N: 5
